Experimental findings from patent publication US20090136936A1 are described below.

This test deals with PA-FITC (PA antigen of Bacillus anthracis) (Bacillus anthracis) (UniProt P13423).
Sequence of PA-FITC (PA antigen of Bacillus anthracis) (Bacillus anthracis) (P13423 30-764 limits assumed): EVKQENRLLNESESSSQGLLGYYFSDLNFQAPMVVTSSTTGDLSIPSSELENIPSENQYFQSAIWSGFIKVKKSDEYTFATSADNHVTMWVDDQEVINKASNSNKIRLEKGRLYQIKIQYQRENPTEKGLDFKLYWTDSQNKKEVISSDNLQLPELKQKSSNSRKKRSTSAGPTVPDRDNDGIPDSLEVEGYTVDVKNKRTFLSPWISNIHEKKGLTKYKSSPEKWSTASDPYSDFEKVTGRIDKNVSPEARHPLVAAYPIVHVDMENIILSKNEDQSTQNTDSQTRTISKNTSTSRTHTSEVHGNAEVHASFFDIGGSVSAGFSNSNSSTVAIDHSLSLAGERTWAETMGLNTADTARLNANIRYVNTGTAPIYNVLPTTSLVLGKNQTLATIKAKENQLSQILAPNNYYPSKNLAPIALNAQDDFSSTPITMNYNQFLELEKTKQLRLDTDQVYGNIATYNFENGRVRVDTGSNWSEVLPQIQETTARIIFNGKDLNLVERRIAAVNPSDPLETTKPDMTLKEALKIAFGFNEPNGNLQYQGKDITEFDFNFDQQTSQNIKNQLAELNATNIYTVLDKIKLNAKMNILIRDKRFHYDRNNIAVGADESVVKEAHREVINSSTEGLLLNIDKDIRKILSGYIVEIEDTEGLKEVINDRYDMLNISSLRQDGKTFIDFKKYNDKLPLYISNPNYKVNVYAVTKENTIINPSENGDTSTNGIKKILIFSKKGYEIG
On to 26-10 scFv (anti-digoxin), for which the Mn (mean fluorescence intensity) was 8.49.

Regarding M18 scFv (PelB fused, anti-PA), the Mn (mean fluorescence intensity) came to 10.3.

PelB-2610scFv-Im2-FLAG displayed a Mn (mean fluorescence intensity) of 9.12.

PelB-M18scFv-Im2-FLAG registered a Mn (mean fluorescence intensity) of 249.
